How the values were obtained:
[1] = molecular target: E275K-BRAF^FL-RLuc8 (human) (UniProt P15056); test: FRET or BRET
Nano-CRAF^CAT (human) = Nano-CRAF^CAT (human) (UniProt P04049); test: FRET or BRET

Substance	increase of BRETmax over WT [1]	increase of BRET signal over CRAF^REG (Nano-CRAF^CAT (human))
Venus-KRAS^G12V (from UniProt P01116 1-189) (natural protein)	15%	
CRAF^REG construct containing the BRAF-CRD, Halo-tagged (domain or fragment)		40%

Reference: PMC9677513
